# Assay results: the DeepSol protein solubility set
# Experiment: soluble on expression in E. coli; label from the status in PepcDB or PDB records
row,Sequence,soluble on expression in E. coli
1,MTVTLTCRFKLELSKDQKQQFLDIATAYTNAVNYVLEQNLKDKSTNVKKLHRLYYKTIREDFDLPAQMAINVNRDVSAMYKTLWAQFKELKRRKPDSKAVKKFWDKPPKRKSLIVKYTYNRTASFKKINGEWHASLSTLQGRIKWIPMKGWSKHFEYLKSCKIGDPILTYDKSSKTFFLLVPVTLEVQEHQPKEIVGVDVGERHIAAVASTKGTRYLIDLPEEFKQRKQHYQRLRSELMSKGTRSAKRKLARISRREKRFTENVLHIIAKKLTTSHPGARFVLEDLTQIRANRITYRGKDKEARRQSEQWPFASLQQKIEYKAKLYYGVQSEKVDPSYTSQTCPRCGHVSKENRPDHGERFVCQSCGYEEHADIVGAINIALRVLAKDQQVNLEKLLGAVVSRPDAPRLG,not soluble
2,GMHLKEKITTIIQGQRTGVLSTVRNDKPHSAFMMFFHEDFVLYVATDRQSKKITDIENNPNVHVLLGREGKKLDEDYIEVEGLASIEEDSTLKNKFWNNSLKRWLLRPEDPNYVLIKINPDTIYYIDGAGTTEPEFLRL,soluble
3,MLVMIDTKRPPVYIDSQVGLNTFFFIRGQYPSLNLFVSFITTVKTLGNNVSRTHGDDAESDCVCDSVSNVDENNEVVDEQDDVEDDKTDEDEEEGDNEDGDGYDAY,not soluble
4,MEWKDIKGYEGHYQVSNTGEVYSIKSGKTLKHQIPKDGYHRIGLFKGGKGKTFQVHRLVAIHFCEGYEEGLVVDHKDGNKDNNLSTNLRWVTQKINVENQMSRGTLNVSKAQQIAKIKNQKPIIVISPDGIEKEYPSTKCACEELGLTRGKVTDVLKGHRIHHKGYTFRYKLNG,soluble
5,IGDWGYSVSANLTTIKNKVKSLVQDGYSIIAGDKQQSYTMAGYPIGFFYGYKVAGVYQSQADIDASPENTLATVTPGDLKFADVNRDGKITPEDRTMIGNPTPDFTYGLSLGVNYKNWSLGIDMMGQHGNEIFRTWDNYNFAQFNYLSQRMDRWHGEGTSNSQPLLNSKHSINNLNSEYYIEDGSFFRIRNVQLAYSFDKALLAKIRLQALKVYVNIQNLKTWKHNTGYTPELGGSATTFGVDDGSYPVPAVYTFGINLTF,not soluble
6,SGPMDSRALRQGNRLLGNAEGCAALEITMSGPLLRFNTDAVIAVTGAHIPITLDGESCAMNTALLVRAGSTLALGTIAGAGVRSYLCVRGGLDVPDYLGSKSTFTLGQFGGHGGRALRAGDVLHIARLVDRTAGQKIADEQLDALQDVRQIRVIYGPHAAPEYFTESYIETFFATDWEVHFNSSRTGVRLIGPKPEWVRADGGEAGLHPSNIHDNPYAIGAVDFTGDMPVILGPDGPSLGGFVCPVTIIEADLWQLGQLKAGDKVRFYPVSVEACHAAMNSQGPLPQGPLNTSGSGL,not soluble
7,GYMPPIEHLQNPIDKYASQLISADGKVFGSYAHSGDNRIYTRYNEISPDLIKALIATEDVRFRKHSGIDSKGLFRAVVKRGILNQKSGGGGSTITQQLAKLLYSPRTETKLGRLFQKPIEWVIAVKLERFYTKEEIITMYLNYFDFLYNAVGIKSAAYTYFGKQPADLKIEEAAVLVGMCKNPAYYNPVLHGETERCRGRRNIVLEQMYKAKYITKAECDSLQKLPLVTSFHRITHRDGEAPYFRERLRQVLMAKKPERKNYLAWQDDQYRADSIAWETDPVYGWCNKNKKADGSNYNIYTDGLKIYTTIDLRMQQYAEEAMVKQMKEVLQPIFDKEKRGRSYAPFSRDITSDEQRSILLRAMKQTDRWREMKKAGISESEIRASFNKKRKMQVWNWRGTIDTVMSPLDSIKYLKGILRTGFMAMNPHNGHIKAYVGGINFRNFQYDMVSQGRRQVGSTIKPFLYSLSMLEGISPCDEMLHVSQTLFTESGKAWTPKNTGARRTGEMVSIKWGLQNSSNWVTAYLMGRTSPYTFVRLLRS,not soluble
8,MGSDKIHHHHHHMTTNSLLIIDFEFTMPDGKYSPQNFFPEIIEAGIVKSIDDEVVETFSSYVRPKKFPKLTKRCKSFLKITQKQVDEGMRFEDFIRKLNELDPEKNSTIITWGNMDMKVLKQNCMFNHIPFPFKGEMRDLSLEYKNFFGDRTLTGLWKAAEEYGDSGTGTHHKALDDALTAYKLFKLVEQDKQYLEKPKPPTIGERIDLTELLKRAT,not soluble
9,MRGSHHHHHHTDPALRASVKVIVTDMDGTFLNDAKTYNQPRFMAQYQELKKRGIKFVVASGNQYYQLISFFPELKDEISFVAENGALVYEHGKQLFHGELTRHESRIVIGELLKDKQLNFVACGLQSAYVSENAPEAFVALMAKHYHRLKPVKDYQEIDDVLFKFSLNLPDEQIPLVIDKLHVALDGIMKPVTSGFGFIDLIIPGLHKANGISRLLKRWDLSPQNVVAIGDSGNDAEMLKMARYSFAMGNAAENIKQIARYATDDNNHEGALNVIQAVLDNTSPFNSGLCGR,soluble
10,MAHHHHHHMGTLEAQTQGPGSMSFSNVPAGKDLPQDFNVIIEIPAQSEPVKYEADKALGLLVVDRFIGTGMRYPVNYGFIPQTLSGDGDPVDVLVITPFPLLAGSVVRARALGMLKMTDESGVDAKLVAVPHDKVCPMTANLKSIDDVPAYLKDQIKHFFEQYKALEKGKWVKVEGWDGIDAAHKEITDGVANFKK,soluble
11,EVVEDVLTNAIENGSSIQDIELTLKDMPQFDRERARTTAITEVLAASSAAQHESYAQSPAVKKKKWRHSGGKKNNPRENHIDLDGTVIGVDEEFQIPGSSETCMFPRDPKLSTRERVNCHCVLS,not soluble
12,MGSDKIHHHHHHMKHLLAGILVWVIWGLCSCQSDGKVIIPSPIYVDNHYHGPADPEITWNPKTEEWMIFYTSRRPFKDQASYVGTPVGVAVSKDFVHWKFAGYCSFDGVGGQPDSEKTYWAPGVIVEGDSAHMFVTLKDDSTPVWGGPSNIVHFSAPLEDMISGWRRVNTVVDTPISIDATVVKNGDRWDMWYRDRPTEDTGGLYYAQSNDLYHWTLKGLAKGDINNVEVTKHTYQEGAYAFQWKGYFWIIADPHKGLAVYRSKDAENWEYQGIVMYEPGTRFFDNTRARHPSVIIRNDRAFIVYHVQPFLGYNPNTHEAGDDVYQKLSFLQMAELEFKDGKLICDRNKVLYK,not soluble
13,MGSDKIHHHHHHMLKKYLISLDKDIQRRELFFSQKNTEDFQVFSAINTMQKDWDELAAIFNIEQFKAHYFRNVTKGEIGCTLSHLSVYQKIVEDNDIAEDSYALVCEDDALFHSDFQQNLTALLSEKLEAEIILLGQSKINDFNDFDLEINYPTTFSFLCKKTGDVNYAFPYKSYFAGTVGYLIKKSAARRFIQQISQNKPFWLADDFLLFEQNFNIRNKVVRPLIVIENPVLISNLESVRGSLSNNLLKKLMKYPLKKIFAIKKNLAN,not soluble
14,MAHHHHHHMKKQIKWKAHKGVVLCADWSRMSGMIVTGGEDGVYKVWDPYGCSIFVAAAGEHPITSVRFAADGESFAVGSFMNVRVCDKTGWSHSYERTTEGSAMALDWMPDGTQMILGNGTGALSIAQIVDRKVSWGPYTVTLLDSRRLTVQDVVKDTVQEIELADKVIKLELGCGYLVVCTTTQCCCYPMDRLNAPVQFDLRDPVISIILGPRQFLLADCSQGLQVYSYEGRQISVLRLQVTLKPEIMTTNLLSLSPETVAMRNPADAKRILFFDVSSGKPFDAASVAHHLDIVSVHLSQSGSLHDRKIAFIDRNNDLYFGPVHTQLGFHKLSTMTTSVAWHDSHETLVAIADGHLATWYYPSTIFTDRDLLSLTKTVRDGGHTEFTRNDRITHFHHTRVLVRRGGDGALLTLPVSPYTVMIFQLVTQKNNWDGATRLARFLKDPLLWAVLTALALRAGELNVAEIGYGALSDLAKVRYIHYIKGIPTPEARQAELALFQHRPAEAERILLQAGLVYRCIDMNTRLFKWERALEIAKERKTHLDTVLGRRERYLQEVSQKEMLAPFKDLSGKVKVDWAVIEEKVKQEVIKESERPNAKPYA,not soluble
15,MSKGKVCLAYSGGLDTSVILAWLLDQGYEVVAFMANVGQEEDFDAAKEKALKIGACKFVCVDCREDFVKDILFPAVQVNAVYEDVYLLGTSLARPVIAKAQIDVAKQEGCFAVSHGCTGKGNDQIRFELSFYALKPDVKCITPWRMPEFFERFAGRKDLLDYAAQKGIPVAQTKAKPWSTDENQAHISYEAGILEDPDTTPPKDMWKLIVDPMDAPDQPQDLTIDFERGLPVKLTYTDNKTSKEVSVTKPLDVFLAASNLARANGVGRIDIVEDRYINLKSRGCYEQAPLTVLRKAHVDLEGLTLDKEVRQLRDSFVTPNYSRLIYNGFLLHPECEYIRSMIQPSQNSVNGTVRVRLYKGNVIILGRSTKTEKLYDPTESSMDELTGFLPTDTTGFIAIQAIRIKKYGESKKTKGEELTL,soluble
16,MLAVHRPSSAVSDGDSVQIPMMIASFQKRFPSLSRDSTAARFHTHEVGPNQCCSAVIQEISAPISTVWSVVRRFDNPQAYKHFLKSCSVIGGDGDNVGSLRQVHVVSGLPAASSTERLDILDDERHVISFSVVGGDHRLSNYRSVTTLHPSPISGTVVVESYVVDVPPGNTKEETCDFVDVIVRCNLQSLAKIAENTAAESKKKMSL,not soluble
17,MKILLIEDNQRTQEWVTQGLSEAGYVIDAVSDGRDGLYLALKDDYALIILDIMLPGMDGWQILQTLRTAKQTPVICLTARDSVDDRVRGLDSGANDYLVKPFSFSELLARVRAQLRQHHALNSTLEISGLRMDSVSHSVSRDNISITLTRKEFQLLWLLASRAGEIIPRTVIASEIWGINFDSDTNTVDVAIRRLRAKVDDPFPEKLIATIRGMGYSFVAVKK,soluble
18,MAHHHHHHMSDAFEARMSAMRARLSSLCHTVEEQEVEQQQQRRSFEHRYFVEARAAGSAATPAATKPITSTATPPSSAPISRPVTSKSQVPRTDGISERDVNQVHSASRKDAAFGHHFGTSSPSASITRARAAKPGSGVNAMLQLARYHASGSWSEAVVTKDIVRFTGGRSSPVPKAPATIPPEAFAVNTGQDTTDSSPVPLMPCGVAGLHSYGFRERLPSPRRPTASLAANTVDLASRNGEGRTSQNTPREESCITAADTTIVDTMHADEATSFDAFRVVQERLRQKMMQLTTTSPHSVVPLSTRGAPAEFAVSDDATAPREELPHRGLTASRAVSDVDGSSPSPRPPPGTRAETATPTRSPDKDESSSHETAPLPQTTPRYQHGQGDTWTDVEVLPATTEPDTENATEARLFTHGSLHDSVVGSGDETTAVSREWQWSRCGVPSTKARTANVPRGVFDPTVRHVRVSRMPSSDAQLNPAAGEQRADSREYRRSPEAATAGRAHSDRGRSGRTTASIQHGVSSAPRRSGSRHAPSSTSAARWSATREGSVSTAARSRKSAPKPAARPKPISLNVEATILCPVTGAELFALLRMRGLIDSEGDTAEYRLPPVRCHRLYVTAEEHRQLKLLRQSLHSLVAEEQHQDIPSYQRFTVSARSRNAEFAPPPPVLRYMDV,not soluble
19,GTPLPENENMSLYQSRVTVGELEMLASRFVGRTRVRNAFAQYWSQQRETLLPNQQASSALIRHTERVLAGVFGASSAKLVLTSALQGRKMQLEEVATIVDEASELYDFSRGLLQGAIEHIG,not soluble
20,MISASLQQRKTRTRRSMLFVPGANAAMVSNSFIYPADALMFDLEDSVALREKDTARRMVYHALQHPLYRDIETIVRVNALDSEWGVNDLEAVVRGGADVVRLPKTDTAQDVLDIEKEILRIEKACGREPGSTGLLAAIESPLGITRAVEIAHASERLIGIALGAEDYVRNLRTERSPEGTELLFARCSILQAARSAGIQAFDTVYSDANNEAGFLQEAAHIKQLGFDGKSLINPRQIDLLHNLYAPTQKEVDHARRVVEAAEAAAREGLGVVSLNGKMVDGPVIDRARLVLSRAELSGIREE,soluble
